Source: PMC6946805

Target: Plasmodium yoelii erythrocyte-binding-like protein (PyEBL), C741 allele of P. yoelii nigeriensis strain N67C, HA::Flag-tagged (Plasmodium yoelii nigeriensis strain N67C)
Assay: co-IP; anti-HA antibody immunoprecipitation of HA-tagged PyEBL from supernatants and solubilized pellets of iRBCs of all parasite stages lysed with saponin (0.1%) and centrifuged (1,455 x g, 4°C, 10 min); Western blot of the precipitates with anti-band 3 or anti-TER119 antibody

B1: band 3 (natural protein)
chain: MGDMRDHEEVLEIPDRDSEEELENIIGQIAYRDLTIPVTEMQDPEALPTEQTATDYVPSSTSTPHPSSGQVYVELQELMMDQRNQELQWVEAAHWIGLEENLREDGVWGRPHLSYLTFWSLLELQKVFSKGTFLLGLAETSLAGVANHLLDCFIYEDQIRPQDREELLRALLLKRSHAEDLGNLEGVKPAVLTRSGGASEPLLPHQPSLETQLYCGQAEGGSEGPSTSGTLKIPPDSETTLVLVGRANFLEKPVLGFVRLKEAVPLEDLVLPEPVGFLLVLLGPEAPHVDYTQLGRAAATLMTERVFRITASMAHNREELLRSLESFLDCSLVLPPTDAPSEKALLNLVPVQKELLRRRYLPSPAKPDPNLYNTLDLNGGKGGPGDEDDPLRRTGRIFGGLIRDIRRRYPYYLSDITDALSPQVLAAVIFIYFAALSPAVTFGGLLGEKTRNLMGVSELLISTAVQGILFALLGAQPLLVLGFSGPLLVFEEAFFSFCESNNLEYIVGRAWIGFWLILLVMLVVAFEGSFLVQYISRYTQEIFSFLISLIFIYETFSKLIKIFQDYPLQQTYAPVVMKPKPQGPVPNTALFSLVLMAGTFLLAMTLRKFKNSTYFPGKLRRVIGDFGVPISILIMVLVDSFIKGTYTQKLSVPDGLKVSNSSARGWVIHPLGLYRLFPTWMMFASVLPALLVFILIFLESQITTLIVSKPERKMIKGSGFHLDLLLVVGMGGVAALFGMPWLSATTVRSVTHANALTVMGKASGPGAAAQIQEVKEQRISGLLVSVLVGLSILMEPILSRIPLAVLFGIFLYMGVTSLSGIQLFDRILLLFKPPKYHPDVPFVKRVKTWRMHLFTGIQIICLAVLWVVKSTPASLALPFVLILTVPLRRLILPLIFRELELQCLDGDDAKVTFDEENGLDEYDEVPMPV
  band 3 signal divided by anti-HA signal, ratio N67C/N67, pellet fraction (fold (N67C over N67)): 3.3
  band 3 signal divided by anti-HA signal, ratio N67C/N67, supernatant fraction (fold (N67C over N67)): 3.1
